Reference: patent US20080176263

Tests used:
[1] = biological target: T1, TNO211 peptide (DABCYL-GABA-Pro-Gln-Gly-Leu-Glu(EDANS)-Ala-Lys-NH2)
T1 chain: PQGLEAK

B1: proteinase K (protein)
chain: AAQTNAPWGLARISSTSPGTSTYYYDESAGQGSCVYVIDTGIEASHPEFEGRAQMVKTYYYSSRDGNGHGTHCAGTVGSRTYGVAKKTQLFGVKVLDDNGSGQYSTIIAGMDFVASDKNNRNCPKGVVASLSLGGGYSSSVNSAAARLQSSGVMVAVAAGNNNADARNYSPASEPSVCTVGASDRYDRRSSFSNYGSVLDIFGPGTSILSTWIGGSTRSISGTSMATPHVAGLAAYLMTLGKTTAASACRYIADTANKGDLSNIPFGTVNLLAYNNYQA
cleavage of the dye-labelled immobilized substrate (color generation) (RH substrate): none of the enzyme preparations were successful in cleaving the RH substrate
visible color from cleavage of the dye-labelled immobilized substrate (Substrate AA): AA substrate reacted with pronase and proteinase K did produce a visible color within 2.5 h at 37 °C

B2: MMP-2 (protein)
chain: YNFFPRKPKWDKNQITYRIIGYTPDLDPETVDDAFARAFQVWSDVTPLRFSRIHDGEADIMINFGRWEHGDGYPFDGKDGLLAHAFAPGTGVGGDSHFDDDELWTLGEGQVVRVKYGNADGEYCKFPFLFNGKEYNSCTDTGRSDGFLWCSTTYNFEKDGKYGFCPHEALFTMGGNAEGQPCKFPFRFQGTSYDSCTTEGRTDGYRWCGTTEDYDRDKKYGFCPETAMSTVGGNSEGAPCVFPFTFLGNKYESCTSAGRSDGKMWCATTANYDDDRKWGFCPDQGYSLFLVAAHEFGHAMGLEHSQDPGALMAPIYTYTKNFRLSQDDIKGIQELYGASPDIDLGTGPTPTLGPVTPEICKQDIVFDGIAQIRGEIFFFKDRFIWRTVTPRDKPMGPLLVATFWPELPEKIDAVYEAPQEEKAVFFAGNEYWIYSASTLERGYPKPLTSLGLPPDVQRVDAAFNWSKNKKTYIFAGDKFWRYNEVKKKMDPGFPKLIADAWNAIPDNLDAVVDLQGGGHSYFFKGAYYLKLENQSLKSVKFGSIKSDWLGC
protease activity (fluorescence from cleavage of substrate TNO211), relative to pronase [1]: 17±4%
